In publication doi:10.1101/2024.02.22.580433 (bioRxiv, 2024):
Positions count from the first letter of the chain named. In names and notes the source's numbering stands.

B1: Acanthamoeba polyphaga mimivirus gp275 (encoded by gene R252) (natural protein, UniProt Q5UPU2 1-278, looked up)
chain: MMIHIHQDKKMSTRSNKKSTKTEKVAKATKPVENVEVSDNEVQEQAVKTKASGKKVTAKSTKQSGGKNAKSGSKSAKSGSKSAKSGSKTSKTQSGGKGDESRDRYFKLIDAKTGRSFGRYTGGTPKQAASKGFTKMIHKIKAEGGALPKNGTMKIYLRESTRGSPRKVYAYEATRKQLTEPQKIEIEGSDGKKKVITYRYRNVIHKVSAPLPNQLGGLKTSRSNKKSGETKKSGSRSSGSKRSAKPTKSAKNAKSTGNKKVSTKSAGAKKAPAAKASR
B2: gp275-K126A (natural protein, Acanthamoeba polyphaga mimivirus, UniProt Q5UPU2 1-278, looked up)
chain: B1 chain with K126A

How the values were obtained:
[1] = molecular target: gp275-do, the minimal MC1 domain of gp275 (Acanthamoeba polyphaga mimivirus) (UniProt Q5UPU2); experiment: SEC
[2] = molecular target: the molecule itself; experiment: SEC

Row | Molecule | stoichiometry N [1] | stoichiometry N [2]
1 | gp275-do, the minimal MC1 domain of gp275 (from UniProt Q5UPU2 97-228) (domain or fragment) | 2 | –
2 | B1 | – | 4
3 | B2 | – | 4
